Our source for the protein stability index values is the supplement of paper PMC10567573.

A short description of the data set: protein stability index of a GFP-peptide fusion (GPS, HEK-293T) (PSI 1-6); higher = more stable.
Where [1] appears, read: treatment: DMSO, c terminus: a fixed tail appended.
Setting [2] is: treatment: MLN4924 1 uM, 8 h, c terminus: a fixed tail appended.
Setting [3] is: treatment: DMSO, c terminus: native.
Where [4] appears, read: treatment: MLN4924 1 uM, 8 h, c terminus: native.

± gives the standard deviation.
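Also: 24-mer peptide tiles fused after GFP, lentivirally expressed, FACS-sorted into six equal bins by GFP/DsRed ratio, decoded by Illumina sequencing, PSI is the read-weighted mean bin number.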

Regarding SNIDKKFSAHYDAVEAELKSSTVG [FAM50A], the protein stability index runs as follows: under setting [1], 4.64 ± 0.18; under setting [2], 4.83 ± 0.28.

As for SNPLAREIFRRHFRQLCYQETPGP [ZSCAN9], the protein stability index amounted to 2.28 ± 0.039 under setting [1] and 2.52 ± 0.097 under setting [2].

As to SNQIPTEVRSKAEEVVSFVKKNVL [FUNDC2], the protein stability index runs as follows: under setting [1], 3.59 ± 0.32; under setting [2], 3.73 ± 0.18.

As to SNTRDRYGRSWESYSSCGDFHYCD [RBMY1A1], the protein stability index under setting [1] was found to be 2.73 ± 0.27 and the protein stability index under setting [2] stood at 2.91 ± 0.54.

As for SNWYITFQSDTDAQQAFILKRRS [LARP4], the protein stability index by setting is: under setting [3], 2.93 ± 0.3; under setting [4], 2.21 ± 0.41.

Turning to SPDVLQMLKIHRSDPQLIVQLRFC [TRADD], the protein stability index worked out at 2.73 ± 0.58 under setting [1] and 2.56 ± 0.6 under setting [2].

In the case of SPQPLASSPGPWGLEALAGGDLMP [FCHO1], the protein stability index runs as follows: under setting [1], 4.05 ± 0.093; under setting [2], 4 ± 0.27.

For SRLMVVVKMDSSIQPGPFRAVLKY [RHOBTB2], the protein stability index turned out to be 2.9 ± 0.56 under setting [1] and 2.79 ± 0.53 under setting [2].

As for SRLQEDPEGTENPLGVDESLFSYG [SLA], the protein stability index is, setting by setting: under setting [1], 4.91 ± 0.058; under setting [2], 4.66 ± 0.69.

Consider SRPELLQPLNFVRFYLPLLIHQHE [GLT8D2], for which the protein stability index runs as follows: under setting [1], 3.09 ± 0.33; under setting [2], 3.14 ± 0.59.

As to SRRPLDEAVAGAEGREAPALVAAG [DENND6A], the protein stability index amounted to 4.86 ± 0.35 under setting [1] and 5.19 ± 0.25 under setting [2].

Regarding SRRYNRKEPAEFNGDGAFLHDNHE [ZNF649], the protein stability index by setting is: under setting [1], 4.73 ± 0.43; under setting [2], 4.45 ± 0.13.

In the case of SRVMFLLVDKETDKRHVEQKIQFK [PDZK1], the protein stability index is 2.62 ± 0.32 under setting [1] and 2.88 ± 0.26 under setting [2].

As for SSASSEQGLLGRSPPTRPVPGHRS [SPRY1], the protein stability index by setting is: under setting [1], 4.82 ± 0.27; under setting [2], 4.8 ± 0.12.

On to SSDPFYTPEPDTCHELLGHVPLLA [TPH1], for which the protein stability index runs as follows: under setting [1], 3.17 ± 0.35; under setting [2], 3.31 ± 0.15.

In the case of SSECHTSGFVGSGGWFCEGSFNGS [KRT36], the protein stability index is 3.23 ± 0.17 under setting [1] and 3.06 ± 0.37 under setting [2].

Consider SSNLLDLKNPFFRYTGTTPSPPPG [CARM1], for which the protein stability index is, setting by setting: under setting [1], 3.29 ± 0.29; under setting [2], 3.42 ± 0.15.

For the sequence SSREDSLEAGLPLQVRGYPEEKKE [CHGA], the protein stability index under setting [1] stood at 5.49 ± 0.21 and the protein stability index under setting [2] is 5.5 ± 0.3.

On to SSRFSSSRLLGSASPSSSVRLGSF [PRPH], for which the protein stability index turned out to be 2.82 ± 0.24 under setting [1] and 2.83 ± 0.18 under setting [2].

On to SSTQLNELLLFAVGFIMAGTPMAL [OR3A1], for which the protein stability index came out at 3.05 ± 0.3 under setting [1] and 3.04 ± 0.61 under setting [2].

In the case of STCHAYSNTRDRYGRSWESYSSCG [RBMY1A1], the protein stability index was determined as 2.29 ± 0.16 under setting [1] and 2.47 ± 0.37 under setting [2].

Regarding STDDFFFREDGAYEFNPDFLEEAH [N4BP2L1], the protein stability index is, setting by setting: under setting [1], 4.99 ± 0.34; under setting [2], 4.89 ± 0.17.

On to STELQASQILQNKKHKNSQLDKNS [FAM98B], for which the protein stability index runs as follows: under setting [1], 4.91 ± 0.38; under setting [2], 5.06 ± 0.45.

STLKTLLFFTALMITVPIGLYFTT [VMA21]: the protein stability index came out at 2.45 ± 0.19 under setting [1] and 2.31 ± 0.19 under setting [2].

For STPKLTSRSAAQDLDRMGVMTLPS [PPFIA4], the protein stability index is, setting by setting: under setting [1], 4.03 ± 0.28; under setting [2], 3.97 ± 0.056.

In the case of STPTTPGSTAITPGTPPSYSSRTP [MAP2], the protein stability index is, setting by setting: under setting [1], 4.88 ± 0.1; under setting [2], 5.06 ± 0.15.

Take SVETLDHDSVVEMIRKGGDQTSLL [PDZK1]: the protein stability index runs as follows: under setting [1], 4.44 ± 0.42; under setting [2], 4.55 ± 0.28.

As to SVPLDPMERPMSQADLELDYNPPR [CBY2], the protein stability index under setting [1] turned out to be 4.75 ± 0.6 and the protein stability index under setting [2] came to 4.98 ± 0.23.

With SVTKEGLELPEDEEEKKKMEESKA [HSP90AB1], the protein stability index reads like this: under setting [1], 5.68 ± 0.32; under setting [2], 5.54 ± 0.39.

As for SYSRGYSYHDGYGEALGRDHSEHL [RBMY1A1], the protein stability index is, setting by setting: under setting [1], 3.5 ± 0.28; under setting [2], 3.38 ± 0.26.

TAHLYSLLQTQHALGDAFADLSQK [ARFIP2] registered a protein stability index under setting [1] of 2.18 ± 0.25 and a protein stability index under setting [2] of 2.22 ± 0.23.

With TASGDCYTFGSNQHGQLGTNTRRG [NEK8], the protein stability index is, setting by setting: under setting [1], 4.56 ± 0.14; under setting [2], 4.67 ± 0.15.

Take TDIKDESCCMTEEIFGPVTCVVPF [ALDH8A1]: the protein stability index by setting is: under setting [1], 3.53 ± 0.23; under setting [2], 3.48 ± 0.3.

Turning to TFPDLESEFQAALSRKVAELVHFL [MAGEA3], the protein stability index by setting is: under setting [1], 2.34 ± 0.37; under setting [2], 2.45 ± 0.33.

The sequence TFPHSISAKNTSHPGSGTKVQFNL [SASS6] registered a protein stability index under setting [1] of 2.89 ± 0.33 and a protein stability index under setting [2] of 3 ± 0.46.

As to TGKAPSPRAAHACATVGNRGFVFG [KLHDC2], the protein stability index under setting [1] is 2.38 ± 0.11 and the protein stability index under setting [2] came to 2.21 ± 0.19.

Take TGVYPRCLHASQWPVCAACPVRKF [BRF1]: the protein stability index is 2.49 ± 0.17 under setting [1] and 2.45 ± 0.24 under setting [2].

As for THEVMGPKKKHLDYLIQATNETNV [SNAP91], the protein stability index runs as follows: under setting [1], 3.85 ± 0.32; under setting [2], 3.69 ± 0.64.

Regarding THLLMGLASGRIILILEGGYNLTS [HDAC6], the protein stability index is 2.89 ± 0.46 under setting [1] and 3.02 ± 0.58 under setting [2].

Take TKLLSGSYDCTVKLWDPVDGSVVR [WDR88]: the protein stability index is, setting by setting: under setting [1], 3.1 ± 0.33; under setting [2], 3.19 ± 0.26.

Regarding TKRSSRNPVFQDSWDTESSGSDSG [FAM104A], the protein stability index was 5.3 ± 0.28 under setting [1] and 5.22 ± 0.055 under setting [2].

As to TKWVDYSNKYGFGYQLSDHTVGVL [PLK2], the protein stability index was determined as 2.19 ± 0.33 under setting [1] and 2.08 ± 0.19 under setting [2].

TLALEALVQLRGRLTSQDWERVHL [ALG2] returned a protein stability index under setting [1] of 2.24 ± 0.27 and a protein stability index under setting [2] of 2.32 ± 0.24.

In the case of TLGGKAFHITNDEPIPFWTFLSRI [NSDHL], the protein stability index turned out to be 2.19 ± 0.096 under setting [1] and 2.28 ± 0.22 under setting [2].

In turn, TLHGVVNESTVCLMSYERRQILHL [TENT5D] had a protein stability index under setting [1] of 2.35 ± 0.54 and a protein stability index under setting [2] of 2.44 ± 0.4.

In the case of TLQHWPHIIRIGDLKPTGEIPKQV [DENND6A], the protein stability index is 2.3 ± 0.29 under setting [1] and 2.74 ± 0.24 under setting [2].

On to TLRPDQQLHIFNTLRSHLIDKGML [CDS2], for which the protein stability index turned out to be 2.14 ± 0.28 under setting [1] and 2.24 ± 0.13 under setting [2].

TLSPHQYHSVHGVGMVPEWSDNS [TBX5]: the protein stability index by setting is: under setting [3], 4.01 ± 0.29; under setting [4], 3.8 ± 0.14.

Regarding TLVNFHLKRSIPQVSPVRRAPSRR [CPN1], the protein stability index reads like this: under setting [1], 2.88 ± 0.28; under setting [2], 3.13 ± 0.23.

In the case of TNEAACLLDNPLCADVLFILQDQE [RHOBTB1], the protein stability index is 3.66 ± 0.24 under setting [1] and 3.82 ± 0.24 under setting [2].

Turning to TNNNIKQRLIKKVQEAVLDKWVND [GOLPH3], the protein stability index came out at 2.37 ± 0.4 under setting [1] and 2.36 ± 0.31 under setting [2].

Regarding TNSTPLRAACFDGHLEVVRYLVGE [FEM1A], the protein stability index reads like this: under setting [1], 2.32 ± 0.18; under setting [2], 2.4 ± 0.31.

In the case of TNVRLQPAATWNLEEKRLTWRLPD [FCHO1], the protein stability index is, setting by setting: under setting [1], 3.27 ± 0.32; under setting [2], 3.34 ± 0.24.

Consider TPATPEDPAPLWGPPPAQGSPGDG [EMID1], for which the protein stability index runs as follows: under setting [1], 5.3 ± 0.48; under setting [2], 5.31 ± 0.22.

As to TPFQSVPPTVSQTPVIAATPVPTI [BRD3], the protein stability index is, setting by setting: under setting [1], 4.06 ± 0.24; under setting [2], 3.94 ± 0.13.

Consider TQIIGEQNARLAELERKLREVMES [FBXO28], for which the protein stability index was 3.71 ± 0.22 under setting [1] and 3.68 ± 0.12 under setting [2].

In the case of TREAVTEILGIEPDREKGFHLDVE [TSN], the protein stability index was 4.62 ± 0.063 under setting [1] and 4.64 ± 0.12 under setting [2].

Sequence TRFTEEYQLFEELGKGAFSVVRRC [CAMK2A] yielded a protein stability index under setting [1] of 2.63 ± 0.39 and a protein stability index under setting [2] of 2.54 ± 0.26.

Regarding TSDDNLLKNIELFDKLALRFHGRL [KCTD13], the protein stability index reads like this: under setting [1], 2.48 ± 0.2; under setting [2], 2.46 ± 0.4.

Take TSECPSDKDKSPESHKAKNESWIK [C10orf62]: the protein stability index came out at 3.58 ± 0.65 under setting [1] and 4.18 ± 0.7 under setting [2].

In turn, TSEGTLELQQRNPKAERLRWSPAQ [ZNF232] yielded a protein stability index under setting [1] of 4.27 ± 0.19 and a protein stability index under setting [2] of 4.25 ± 0.15.

Consider TSGVAAVQDWYHFHYVDILALLPA [SCNN1D], for which the protein stability index is, setting by setting: under setting [1], 2.42 ± 0.44; under setting [2], 2.35 ± 0.24.

For TSKNSSTQDPSQPNSTKNQSLPKA [LCOR], the protein stability index was 5.31 ± 0.16 under setting [1] and 5.44 ± 0.12 under setting [2].

As for TSPVYRGSSSGPSSPARVSTTPR [MTUS2], the protein stability index runs as follows: under setting [3], 4.45 ± 0.2; under setting [4], 4.48 ± 0.13.

TSSASVTTTSNASGRRTSDVRRP [KRT13]: the protein stability index came to 2.88 ± 0.77 under setting [3] and 3.58 ± 0.76 under setting [4].

TTTVTAVTAEVDLFGDAFAASPGE [SNAP91]: the protein stability index amounted to 4.54 ± 0.13 under setting [1] and 4.59 ± 0.28 under setting [2].

As for TVASMMHRQETVECLKKFNARRKL [CAMK2B], the protein stability index is, setting by setting: under setting [1], 3.41 ± 0.4; under setting [2], 3.74 ± 0.33.

Consider TVEQGCQILDSLSYMRNENVISEL [FBXO39], for which the protein stability index came out at 3.5 ± 0.43 under setting [1] and 3.41 ± 0.42 under setting [2].

On to TYSKFQPQSPDFLDITNPKAVLEN [UFD1], for which the protein stability index amounted to 3.92 ± 0.18 under setting [1] and 4.24 ± 0.076 under setting [2].

As to VAACTKEIDTQGRHLAHSMLQRAI [C10orf62], the protein stability index amounted to 2.86 ± 0.41 under setting [1] and 2.9 ± 0.14 under setting [2].

With VADGLCCVLTTPCLTQSTAAPAVR [SLA], the protein stability index under setting [1] was 2.5 ± 0.54 and the protein stability index under setting [2] amounted to 2.77 ± 0.2.

For the sequence VAELFCRRCRRCVCALCPVLGAHR [TRIM14], the protein stability index by setting is: under setting [1], 2.25 ± 0.1; under setting [2], 2.49 ± 0.39.
